From patent publication US20250195679A1, “ANTIBODY-DRUG CONJUGATE AND USE THEREOF” (SHANGHAI HUAOTA BIOPHARMACEUTICAL CO., LTD., priority 2022, published 2025)

T1: Human CD73 (Homo sapiens, UniProt P21589)
T1 sequence (P21589 27-547 limits assumed): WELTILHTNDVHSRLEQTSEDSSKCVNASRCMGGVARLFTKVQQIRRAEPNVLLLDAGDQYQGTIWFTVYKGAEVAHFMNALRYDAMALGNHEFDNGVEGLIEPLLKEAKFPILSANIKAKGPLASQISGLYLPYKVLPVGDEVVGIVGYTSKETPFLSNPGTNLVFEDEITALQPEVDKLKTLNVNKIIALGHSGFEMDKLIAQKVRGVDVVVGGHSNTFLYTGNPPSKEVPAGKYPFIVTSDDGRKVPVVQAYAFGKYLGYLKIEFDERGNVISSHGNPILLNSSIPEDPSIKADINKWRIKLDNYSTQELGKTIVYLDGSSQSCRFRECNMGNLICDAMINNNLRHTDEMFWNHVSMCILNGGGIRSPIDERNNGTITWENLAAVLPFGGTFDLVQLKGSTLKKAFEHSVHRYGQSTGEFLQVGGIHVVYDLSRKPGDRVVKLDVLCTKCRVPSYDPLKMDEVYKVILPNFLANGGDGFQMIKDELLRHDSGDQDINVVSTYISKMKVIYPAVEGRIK

B1: Antibody-drug conjugate 1: 900698 antibody cysteine-conjugated to SN-38 via Mc-VC-PAB-DMEDA-PEG linker, DAR about 7.8 (conjugate)
VH: QVQLVESGGGLVKPGGSLRLSCAASGFTFSKYAMSWIRQAPGKGLEWVAEISSGGGYINYADSVKGRFTISRDNAKNSLYLQMNSLRAEDTAVYYCARAIYYYGSSYNYYAMDYWGQGTTVTVSS
VL: DIQMTQSPSSLSASVGDRVTITCRASQDVGTAEAWYQQKPGKAPKLLIYWASTRHTGVPSRFSGSGSGTDFTLTISSLQPEDFATYYCQQYSSYPLTFGQGTKLEIK
B2: 900698: anti-CD73 antibody, VH SEQ ID NO: 35, VL SEQ ID NO: 34 (antibody, V domains shown)
VH: B1 VH
VL: B1 VL
modifications: 900696, 900698 (VH); 900695, 900698 (VL)
B3: Antibody-drug conjugate 2: 900698 antibody cysteine-conjugated to SN-38 via MP2-VC-PAB-DMEDA-PEG linker, DAR about 7.8 (conjugate)
VH: B1 VH
VL: B1 VL

Tests used:
Human CD73 [1] = target: T1, Human CD73; experiment: Inhibition of enzymatic activity of soluble recombinant CD73 protein (AMP/ATP, CellTiter-Glo); type: biochemical; parameters: purchased ACRO CD3-H52H7-100 μg; conditions: FIG. 3; the three samples compared with each other
Description: The inhibitory effects of the antibody-drug conjugate 1 and the antibody-drug conjugate 2 prepared in Example 1 and the 900698 naked antibody on the enzymatic activity of a recombinant CD73 protein (ACRO, #CD3-H52H7-100 μg) were assayed. The specific procedures were as follows: The series of CD73 antigen-binding proteins were diluted to 120 μg/mL with TM Buffer (ROCKLAND, #MB-059), followed by a 3-fold dilution across 10 gradients. The diluted proteins were each added at 25 µL/well to a 96-well plate. The recombinant CD73 protein was then diluted to 0.3 μg/mL with TM Buffer (ROCKLAND, #MB-059) and added at 25 μL/well to the 96-well plate. The mixture was mixed uniformly. Then, diluted AMP and ATP were mixed at a ratio of 1:1, and the mixture was added at 50 μL/well to the above 96-well plate. The resulting mixture was allowed to react for 15 min. Finally, a CellTiter-Glo® substrate was added to a CellTiter-Glo® buffer. The mixture was mixed uniformly and equilibrated to room temperature, and then added at 100 μL/well to the wells to be tested. The resulting mixture was allowed to react at room temperature for 10 min and then subjected to full-wavelength detection.
The results for the inhibition of the enzymatic activity of the soluble recombinant CD73 antigen protein (ACRO, #CD3-H52H7-100 μg) by the antibody-drug conjugate 1, the antibody-drug conjugate 2, and the 900698 naked antibody are shown in FIG. 3 (represented as 1-3 in FIG. 3, respectively).

MDA-MB-231 cells = experiment: Killing of tumor cells highly expressing CD73 (CellTiter-Glo); type: cell-based, human; conditions: cells highly expressing CD73, 5 days, FIG. 6
Description: (§1) The specific procedures were as follows: MDA-MB-231 cells and MCF-7 cells were prepared into cell suspensions at densities of 8E4 cells/mL and 7.5E5 cells/mL, respectively, which were then each added onto a 96-well cell culture plate at 100 μL per well. The 96-well cell culture plate was sealed with liquid and then incubated in an incubator at 37° C. with 5% CO2 for 6 h. With an assay medium, the antibody-drug conjugate 1, the antibody-drug conjugate 2, and the 900698 naked antibody were each diluted to 400 μg/mL and then subjected to a 2-fold dilution to give 8 concentrations, resulting in a total of 9 concentrations. The same dilution procedure was performed for the Buffer solution as for the antibody-drug conjugate 1. The gradient dilution solutions were each added at 50 μL/well to the 96-well cell culture plate after the above incubation was completed. Each sample well was then supplemented with 50 μL of the corresponding assay medium. The 96-well cell culture plate was further incubated in an incubator at 37° C. with 5% CO2 for another 5 days. After the incubation was completed, the 96-well plate was removed from the incubator, 100 μL of culture medium was aspirated from each well, and then the equilibrated Celltiter-Glo Luminescent Cell Viability Assay reagent (Promega, #G7573) was added at 100 μL/well. After shaking for reaction in the dark at room temperature for 10 min, 100 μL of culture medium was taken from each well, transferred to the corresponding well of a 96-well black plate, and then subjected to full-wavelength detection using a microplate reader.

Monkey CD73 = experiment: Biacore binding kinetics with monkey CD73 protein; conditions: Monkey CD73, Biacore T200, protein A chip, 25° C., 1:1 binding model
Description: (§2) The binding kinetics of the antibody-drug conjugate 1 and the antibody-drug conjugate 2 prepared in Example 1 and the 900698 naked antibody with a human CD73 protein (manufacturer: ACRO Biosystems, Cat. No. CD3-H52H7) and a monkey CD73 protein (manufacturer: Novoprotein, Cat. No. CI21) were assayed using Biacore (GE, model: T200), with an assay buffer of HBS-EP+ (pH 7.4) and a protein A chip (manufacturer: GE, Cat. No. 29-1275-56).
(§3) The temperature for the sample compartment and the flow path was set to 25° C. The protein A chip captured each antigen-binding protein as a ligand, fixing about 100 RU. The human CD73 protein was diluted with the assay buffer to a series of concentrations of 50 nM, 25 nM, 12.5 nM, 6.25 nM, 3.12 nM, and 1.57 nM, serving as analytes, and the assay buffer was used as a 0 concentration control. At a flow rate of 30 μL/min, association was conducted for 120 s, and dissociation was conducted for 600 s. Glycine (10 mM, pH 1.5) was used for regeneration at a flow rate of 50 μL/min for 60 s in a multi-cycle kinetic assay. A 1:1 binding model was used, and the Fit Local mode was selected to determine the association rate constant (ka), dissociation rate constant (kd), and equilibrium dissociation constant (KD).

MCF-7 cells = experiment: Killing of tumor cells not expressing CD73 (CellTiter-Glo); type: cell-based; conditions: cells not expressing CD73, 5 days, FIG. 5
Description: as §1

Human CD73 [2] = target: T1, Human CD73; experiment: Biacore binding kinetics with human CD73 protein; parameters: purchased ACRO Biosystems CD3-H52H7; conditions: Human CD73, Biacore T200, protein A chip, 25° C., 1:1 binding model
Description: as §2, §3

Molecule	inhibitory effect on the enzymatic activity of the soluble recombinant CD73 protein (Human CD73 [1])	killing effect on MDA-MB-231 cells (MDA-MB-231 cells)	ka (Monkey CD73)	kd (Monkey CD73)	killing effect on MCF-7 cells (MCF-7 cells)	ka (Human CD73 [2])	kd (Human CD73 [2])
B1	comparable inhibitory effects	excellent killing effects	55000 M⁻¹ s⁻¹	1.92e-06 s⁻¹	no killing effect	381000 M⁻¹ s⁻¹	0.000129 s⁻¹
B2	comparable inhibitory effects	no killing effect	148000 M⁻¹ s⁻¹	1.8e-05 s⁻¹	no killing effect	147000 M⁻¹ s⁻¹	0.000104 s⁻¹
B3	comparable inhibitory effects	excellent killing effects	454000 M⁻¹ s⁻¹	0.000114 s⁻¹	no killing effect	643000 M⁻¹ s⁻¹	0.000228 s⁻¹
